Measurements reported in patent US8829175B2, “Nucleic acids encoding polyvalent protein complexes” (IBC Pharmaceuticals, Inc., priority 2003, dated 2014).

How the values were obtained:
CEA = biological target: T1, CEA (Homo sapiens, UniProt P06731); test: SE-HPLC analysis of in vitro immunoreactivity with CEA; assay type: binding; settings: 125I-labeled protein; complexes bound to either one or two CEAs
T1 sequence (P06731 35-676): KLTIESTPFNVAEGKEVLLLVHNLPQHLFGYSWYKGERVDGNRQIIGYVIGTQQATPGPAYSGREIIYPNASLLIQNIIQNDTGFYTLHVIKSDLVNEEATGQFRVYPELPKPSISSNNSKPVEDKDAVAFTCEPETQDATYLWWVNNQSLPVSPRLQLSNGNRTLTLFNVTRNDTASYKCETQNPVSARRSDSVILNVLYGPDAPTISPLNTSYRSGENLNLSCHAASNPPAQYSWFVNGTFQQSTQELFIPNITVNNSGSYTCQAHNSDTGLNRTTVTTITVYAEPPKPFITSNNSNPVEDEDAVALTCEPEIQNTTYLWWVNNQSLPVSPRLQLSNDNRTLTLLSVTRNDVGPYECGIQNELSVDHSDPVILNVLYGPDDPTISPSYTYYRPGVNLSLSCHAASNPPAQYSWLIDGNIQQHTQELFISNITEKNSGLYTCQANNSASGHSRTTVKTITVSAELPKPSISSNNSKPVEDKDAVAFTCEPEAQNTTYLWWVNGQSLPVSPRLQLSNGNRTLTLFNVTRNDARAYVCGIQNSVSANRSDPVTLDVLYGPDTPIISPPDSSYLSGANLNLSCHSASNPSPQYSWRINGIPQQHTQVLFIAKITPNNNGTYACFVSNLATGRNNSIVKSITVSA
From the text: Confirmation that BS14HP has the ability to bind CEA bivalently was provided by SE-HPLC analysis of in vitro immunoreactivity. […] (FIG. 6B).

[1] = BIAcore binding to HSG immobilized on a sensorchip
From the text: If the W12 binding is allowed to approach saturation, the stoichiometry of the binding can be determined. The additional increase in RU resulting from W12 binding was compared to the initial RU increase of the hBS14 upon binding to the HSG-sensorchip. As each increase in RU level is directly proportional to the mass bound, the WI2:bsAb molar binding ratio can be calculated using the formula (RUWI2/RUhBS14)×(MWhBS14/MWWI2). hBS14 was designed to be bivalent for CEA (and monovalent for HSG) and as such should bind W12 (also bivalent) with a 1:1 molar ratio. […] When equal concentrations of hBS14 were bound to an HSG-sensorchip, BIAcore sensorgrams are indistinguishable between lots derived from either SP2/0 or YB2/0 cells (FIG. 17).

[2] = system: human colonic tumor (GW-39) xenograft; test: Imaging of mice pre-targeted with hBS14 followed by 99mTc-IMP-245; assay type: in vivo, nude mice
Description: The experiment used 3 groups of 15 mice, each of which was necropsied, and 1 group of 5 mice that was imaged. Three groups of mice were administered 6 μCi ^125I-hBS14 (40 μg, 5.0×10^−10 moles). In the last group (imaging group), 3 mice received unlabeled hBS14. The amount of ^99mTc-IMP-245 administered to all the mice was ˜40 μCi (92 ng, 5.0×10^−11 moles) for a bispecific:peptide ratio of 10:1.
Animals 1 & 2 were given peptide only, while animals 3, 4, & 5 were administered hBS14 followed by peptide.

binding to immobilized HSG [1]: bound tightly
B1: hBS14: bispecific trivalent heterodimer (hMN-14×hMN-14×679) expressed in myeloma cells, SEQ ID NO:11 and 12 (antibody)
heavy: MEVQLVESGGDLVKPGGSLKLSCAASGFTFSIYTMSWLRQTPGKGLEWVATLSGDGDDIYYPDSVKGRFTISRDNAKNSLYLQMNSLRAEDTALYYCARVRLGDWDFDVWGQGTTVSVSSGGGGSDIQLTQSPSSLSASVGDRVTITCKASQDVGTSVAWYQQKPGKAPKLLIYWTSTRHTGVPSRFSGSGSGTDFTFTISSLQPEDIATYYCQQYSLYRSFGQGTKVEIKRLEGGGSEVQLVESGGGVVQPGRSLRLSCSASGFDFTTYWMSWVRQAPGKGLEWIGEIHPDSSTINYAPSLKDRFTISRDNAKNTLFLQMDSLRPEDTGVYFCASLYFGFPWFAYWGQGTPVTVSVDHHHHHH
light: MDIQLTQSPSSLSASVGDRVTITCKASQDVGTSVAWYQQKPGKAPKLLIYWTSTRHTGVPSRFSGSGSGTDFTFTISSLQPEDIATYYCQQYSLYRSFGQGTKVEIKRGGGQFMEVQLVESGGGVVQPGRSLRLSCSASGFDFTTYWMSWVRQAPGKGLEWIGEIHPDSSTINYAPSLKDRFTISRDNAKNTLFLQMDSLRPEDTGVYFCASLYFGFPWFAYWGQGTPVTVSGGGGSDIVMTQSPSSLAVSPGERVTLTCKSSQSLFNSRTRKNYLGWYQQKPGQSPKLLIYWASTRESGVPDRFSGSGSGTDFTLTINSLQAEDVAVYYCTQVYYLCTFGAGTKLELKRLDHHHHHH
SE-HPLC peak shifts on mixing with increasing amounts of CEA (CEA): two distinct peak shifts
tumor visibility in images ([2]; 1 hr post-peptide administration, hBS14 48-hr clearance then 99mTc-IMP-245): clearly visible
location of signal in images ([2]; 24 hrs post-peptide administration, imaged for 20 minutes): only signal detected was located in the tumors
